Measured values: PMC6077193, “Intravascular Schistosoma mansoni Cleave the Host Immune and Hemostatic Signaling Molecule Sphingosine-1-Phosphate via Tegumental Alkaline Phosphatase” (Frontiers in Immunology, 2018)

How the values were obtained:
Experiment in all cases: purified protein
[1] = test system: Cc1cn([C@H]2C[C@H](O)[C@@H](COP(=O)(O)O)O2)c(=O)[nH]c1=O; details: 50 mM Tris-HCl pH 9, 5 mM KCl, 135 mM NaCl, 10 mM glucose, 10 mM MgCl2, 0-2 mM substrate
[2] = test system: Nc1ccn([C@@H]2O[C@H](COP(=O)(O)O)[C@@H](O)[C@H]2O)c(=O)n1; details: 50 mM Tris-HCl pH 9, 5 mM KCl, 135 mM NaCl, 10 mM glucose, 10 mM MgCl2, 0-2 mM substrate
[3] = test system: Nc1nc2c(ncn2[C@@H]2O[C@H](COP(=O)(O)O)[C@@H](O)[C@H]2O)c(=O)[nH]1; details: 50 mM Tris-HCl pH 9, 5 mM KCl, 135 mM NaCl, 10 mM glucose, 10 mM MgCl2, 0-2 mM substrate
[4] = test system: Nc1ncnc2c1ncn2[C@@H]1O[C@H](COP(=O)(O)O)[C@@H](O)[C@H]1O; details: 50 mM Tris-HCl pH 9, 5 mM KCl, 135 mM NaCl, 10 mM glucose, 10 mM MgCl2, 0-2 mM substrate
[5] = test system: O=[N+]([O-])c1ccc(OP(=O)(O)O)cc1; details: 50 mM Tris-HCl pH 9, 5 mM KCl, 135 mM NaCl, 10 mM glucose, 10 mM MgCl2

rSmAP (recombinant Schistosoma mansoni alkaline phosphatase) (Schistosoma mansoni)
Km [1]: 595 µM | Km [2]: 630 ± 20 µM | Km [3]: 640 ± 11 µM | Km [4]: 650 µM | Km [5]: 288 ± 12 µM
